This note sets out measurements from US20160185871A1 (UNIVERSITY OF TOKYO, published 2016).

One assay deals with T1, mouse TLR9 (mouse, UniProt Q9EQU3 26-1032).
T1 construct: Stands for three settings: mouse TLR9 expressed in Ba/F3 cells (Ba/F3_mTLR9), alone or with Unc93B1, and endogenous TLR9 of spleen DC; also called mTLR9; endogenous TLR9
T1 sequence: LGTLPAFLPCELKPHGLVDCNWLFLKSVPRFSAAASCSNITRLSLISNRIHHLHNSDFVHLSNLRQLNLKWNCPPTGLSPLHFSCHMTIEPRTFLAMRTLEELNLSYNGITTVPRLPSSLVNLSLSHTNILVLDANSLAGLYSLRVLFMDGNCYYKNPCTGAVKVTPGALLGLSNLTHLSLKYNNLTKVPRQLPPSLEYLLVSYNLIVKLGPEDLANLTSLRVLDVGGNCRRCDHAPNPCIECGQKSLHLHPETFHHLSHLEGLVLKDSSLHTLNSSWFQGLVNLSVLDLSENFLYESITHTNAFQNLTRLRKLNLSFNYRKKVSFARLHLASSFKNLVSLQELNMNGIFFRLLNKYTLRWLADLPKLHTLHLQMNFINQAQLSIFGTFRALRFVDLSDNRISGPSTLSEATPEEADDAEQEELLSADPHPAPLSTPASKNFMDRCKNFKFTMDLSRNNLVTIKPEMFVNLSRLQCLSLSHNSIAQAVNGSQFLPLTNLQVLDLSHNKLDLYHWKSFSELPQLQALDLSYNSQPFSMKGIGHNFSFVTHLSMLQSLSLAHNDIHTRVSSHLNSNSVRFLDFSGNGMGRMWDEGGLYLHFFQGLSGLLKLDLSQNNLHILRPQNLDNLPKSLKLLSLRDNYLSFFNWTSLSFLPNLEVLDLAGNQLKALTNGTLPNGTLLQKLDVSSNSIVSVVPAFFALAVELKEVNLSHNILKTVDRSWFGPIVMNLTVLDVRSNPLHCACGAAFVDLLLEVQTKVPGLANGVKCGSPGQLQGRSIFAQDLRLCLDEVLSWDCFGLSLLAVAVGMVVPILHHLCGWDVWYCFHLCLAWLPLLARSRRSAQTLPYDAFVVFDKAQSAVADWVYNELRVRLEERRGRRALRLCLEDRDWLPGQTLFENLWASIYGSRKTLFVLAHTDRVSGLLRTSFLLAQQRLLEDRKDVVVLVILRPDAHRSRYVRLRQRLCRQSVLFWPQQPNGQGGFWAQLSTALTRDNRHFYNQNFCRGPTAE
The assay is described as follows: flow cytometry on Ba/F3_mTLR9 cells, hybridoma selection. From the text: In order to establish a monoclonal antibody (mAb) against mouse TLR9, BALB/c TLR9^{-/-} mice were immunized with Ba/F3 cells(Ba/F3_mTLR9) that expressed mouse TLR9. Four days after final immunization, the spleen cells were fused with the SP2/0 myeloma cells. Hybridomas producing anti-mouse TLR9 mAb were selected by flow cytometry based on the staining of the Ba/F3 cells used for immunization. Three monoclonal antibodies J15A7 (IgG1/κ), C34A1 (IgG2a/κ), and B33A4 (IgG2a/κ) were established.
(In flow cytometry, cells or beads pass a laser one at a time.)

Assay [1] deals with T2, mouse TLR9 having Flag-His6 added on the C-terminal side (mouse, UniProt Q9EQU3 26-1032).
T2 construct: Expressed in Ba/F3 cells and stained after membrane permeabilisation; not shown: C-terminal Flag-His6 tag
T2 sequence: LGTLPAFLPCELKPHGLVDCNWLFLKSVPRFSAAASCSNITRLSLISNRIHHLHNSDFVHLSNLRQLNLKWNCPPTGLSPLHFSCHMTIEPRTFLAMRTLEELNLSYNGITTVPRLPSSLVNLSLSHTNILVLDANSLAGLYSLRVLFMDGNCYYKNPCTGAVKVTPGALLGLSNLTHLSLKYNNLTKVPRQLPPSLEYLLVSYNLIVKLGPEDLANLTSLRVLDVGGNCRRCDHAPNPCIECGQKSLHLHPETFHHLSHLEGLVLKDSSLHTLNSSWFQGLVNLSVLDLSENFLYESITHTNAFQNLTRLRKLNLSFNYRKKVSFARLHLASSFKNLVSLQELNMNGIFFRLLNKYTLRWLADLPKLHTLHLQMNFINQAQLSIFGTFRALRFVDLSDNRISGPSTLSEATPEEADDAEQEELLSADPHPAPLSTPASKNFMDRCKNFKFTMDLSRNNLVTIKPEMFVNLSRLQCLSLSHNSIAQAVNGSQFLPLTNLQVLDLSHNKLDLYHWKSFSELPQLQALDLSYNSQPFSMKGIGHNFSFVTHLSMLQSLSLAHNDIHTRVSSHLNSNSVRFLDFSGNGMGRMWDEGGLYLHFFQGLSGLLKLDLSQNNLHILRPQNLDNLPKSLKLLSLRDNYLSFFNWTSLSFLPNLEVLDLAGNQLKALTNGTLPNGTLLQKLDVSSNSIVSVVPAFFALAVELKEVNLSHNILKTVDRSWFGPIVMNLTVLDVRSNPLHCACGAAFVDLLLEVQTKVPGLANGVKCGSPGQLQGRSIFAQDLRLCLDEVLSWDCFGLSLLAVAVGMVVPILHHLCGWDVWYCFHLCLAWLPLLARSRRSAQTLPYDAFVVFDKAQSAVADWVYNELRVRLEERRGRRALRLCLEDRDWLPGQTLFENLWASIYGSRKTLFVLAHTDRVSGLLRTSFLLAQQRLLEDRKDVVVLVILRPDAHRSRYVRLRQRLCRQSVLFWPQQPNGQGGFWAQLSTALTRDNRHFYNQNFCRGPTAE
The assay is described as follows: membrane permeability staining of Ba/F3 cells, flow cytometry.

Assay [2] concerns the target T3, human TLR9 having Flag-His6 added on the C-terminal side (human, UniProt Q9NR96 26-1032).
T3 construct: whole, on cells; Expressed in Ba/F3 cells and stained after membrane permeabilisation; not shown: C-terminal Flag-His6 tag
T3 sequence (looked up): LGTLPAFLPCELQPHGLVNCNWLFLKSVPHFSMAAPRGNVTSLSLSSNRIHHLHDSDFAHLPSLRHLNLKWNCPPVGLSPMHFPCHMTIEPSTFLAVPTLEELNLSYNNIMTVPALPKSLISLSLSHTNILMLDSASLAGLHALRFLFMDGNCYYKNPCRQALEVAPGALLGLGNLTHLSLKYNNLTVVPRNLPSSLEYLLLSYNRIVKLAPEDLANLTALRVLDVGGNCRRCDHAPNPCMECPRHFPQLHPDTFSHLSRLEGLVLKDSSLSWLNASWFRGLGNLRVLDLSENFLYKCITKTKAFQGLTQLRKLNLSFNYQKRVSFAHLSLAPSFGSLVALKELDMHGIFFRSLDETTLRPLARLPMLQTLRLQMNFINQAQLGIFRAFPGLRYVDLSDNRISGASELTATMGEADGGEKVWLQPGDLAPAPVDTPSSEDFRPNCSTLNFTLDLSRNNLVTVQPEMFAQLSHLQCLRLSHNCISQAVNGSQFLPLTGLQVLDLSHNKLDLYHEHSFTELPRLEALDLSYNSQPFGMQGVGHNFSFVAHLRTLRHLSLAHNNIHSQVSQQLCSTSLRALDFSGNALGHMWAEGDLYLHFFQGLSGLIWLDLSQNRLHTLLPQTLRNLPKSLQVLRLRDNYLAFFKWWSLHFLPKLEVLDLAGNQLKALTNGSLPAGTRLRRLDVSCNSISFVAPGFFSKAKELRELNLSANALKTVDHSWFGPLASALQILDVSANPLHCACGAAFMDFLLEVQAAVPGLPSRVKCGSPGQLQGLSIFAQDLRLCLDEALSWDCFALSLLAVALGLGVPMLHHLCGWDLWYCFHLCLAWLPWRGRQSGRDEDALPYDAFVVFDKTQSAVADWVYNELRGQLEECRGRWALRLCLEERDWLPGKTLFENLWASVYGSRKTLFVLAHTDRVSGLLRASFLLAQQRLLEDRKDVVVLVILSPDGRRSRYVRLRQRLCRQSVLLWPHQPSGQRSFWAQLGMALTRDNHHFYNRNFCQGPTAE
The description is as above.

Assay [3] concerns the target T4, C terminal region TLR7 (TLR7C; from 461-st glutamic acid to 837-th aspartic acid) (mouse, UniProt P58681 461-837).
T4 construct: not shown: N-terminal HA antigen added by the pDisplay vector; Cell-surface display (membrane anchor) part of the pDisplay vector; not described
T4 sequence: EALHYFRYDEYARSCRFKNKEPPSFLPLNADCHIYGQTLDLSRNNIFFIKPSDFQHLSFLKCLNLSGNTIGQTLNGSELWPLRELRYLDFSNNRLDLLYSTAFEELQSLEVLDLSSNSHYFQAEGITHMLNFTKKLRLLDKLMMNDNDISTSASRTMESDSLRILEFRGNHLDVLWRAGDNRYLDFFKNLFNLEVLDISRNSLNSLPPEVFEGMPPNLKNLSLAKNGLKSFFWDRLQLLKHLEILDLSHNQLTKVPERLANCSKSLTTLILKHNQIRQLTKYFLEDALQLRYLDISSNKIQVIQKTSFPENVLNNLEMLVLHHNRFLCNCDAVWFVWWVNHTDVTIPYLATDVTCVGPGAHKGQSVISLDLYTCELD
The assay is described as follows: flow cytometry on cells displaying the fragment.

The target in a further assay is T5, TLR7N27-312 (mouse, UniProt P58681 27-312).
T5 construct: Expressed in a cell line; also called fragment of TLR7 from position 27 to position 312
T5 sequence: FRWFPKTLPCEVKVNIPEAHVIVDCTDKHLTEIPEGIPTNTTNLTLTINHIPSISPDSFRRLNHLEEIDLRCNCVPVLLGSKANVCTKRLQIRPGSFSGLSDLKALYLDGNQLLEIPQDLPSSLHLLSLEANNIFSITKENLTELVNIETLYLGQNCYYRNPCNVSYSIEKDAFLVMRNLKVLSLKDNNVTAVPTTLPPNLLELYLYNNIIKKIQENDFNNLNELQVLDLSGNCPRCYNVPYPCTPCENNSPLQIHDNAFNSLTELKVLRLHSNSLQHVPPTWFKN
The assay is described as follows: flow cytometry on a cell line expressing the fragment.

B1: J15A7 antibody (antibody, mouse IgG1, kappa, V domains shown)
VH: QVQLQQPGAELVMPGASVKMSCKASGYTFTDYWMHWVKQRPGQGLEWIGVIDTSDSYTSYNQKFNRKATLTVDESSSTAYMQLSSLTSEDSAVYYCARDGPYYAMDYWGQGTSVTVSS
VL: QIVLTQSPAIMSASPGEKVTISCSASSGVSYMYWYQQKPGSSPKPWIYRTSNLASGVPARFSGSGSGTSYSLTISSMEAEDAATYYCHQYHSDPRTFGGGTKLEIKR
notes: Mouse monoclonal antibody from a hybridoma, IgG1/kappa; also called anti-TLR9 monoclonal antibody J15A7
In the case of B1, the binding result with mouse TLR9 is on record as “binds”; in assay [1], “binds”; in assay [2], “no binding”.

B2: C34A1 antibody (antibody, mouse IgG2a, kappa, V domains shown)
VH: EVQLVESGGDLVKPGGSLKLSCAASGFTFSSYAMSWVRQTPDNRLEWVATSSSVGSYAYYPDNVKGRFTISRDNAKNTLYLQMSSLKSEDTAMYYCARRDYDARYWYFDVWGAGTTVTVSS
VL: DIKMTQSPSSMYASLGERVTITCKASQDIKSYLSWYQLKPWKSPKTLIYYATTLADGVPSRFSGSGSGQDYSLTISSLESDDTATYYCLQHGESPYTFGGGTKLEIKR
notes: Mouse monoclonal antibody from a hybridoma, IgG2a/kappa
In the case of B2, the binding result with mouse TLR9 is listed as “binds”; in assay [1], “binds”; in assay [2], “no binding”.

B3: B33A4 antibody (antibody, V domains shown)
VH: EVLLQQSGPELVKPGASVKIPCKASGFTFTDYNLDWVKQSHEKSLEWIGDINPNTGGTIYNQNFKGKATLTVDRSSGTAYMELRSLTSEDTAVYFCARYFVSNYGYFDVWGAGTTVTVSS
VL: SIVMTQTPKFLLVSAGDRVTITCKASQSVSYDVAWYQQKPGQSPKLLIYYASNLYTGVPDRFTGSGYGTDFTFTISTVQAEDLAVYFCQQDSSSPYTFGGGTKLEIKR
notes: Mouse monoclonal antibody from a hybridoma, IgG2a/kappa; also called anti-TLR9N
As to B3, the binding result in assay [2] is “no binding”.

B4: A94B10 antibody (antibody, V domains shown)
VH: EVKLVESGGGLVQPGGSLRLSCTTSGFTFSDFYMEWVRQPPGKRLEWIAASRNKRNDHTTEYSASVKGRFIVSRDTSQNILYLQMNALRAEDTAIYYCARDADYYGSSTWYFDVWGAGTTVTVSS
VL: DIVMTQSHKFMSTSVGDRVSITCKASQDVRTAVAWYQQKPGQSPKLLIYWASTRHTGVPDRFTGSGSGTDYTLTISSVQAEDLALYYCQQHYNTPPTFGGGTKLEIKR
notes: Mouse monoclonal antibody from a hybridoma, isotype IgG1; Chains were determined from full-length cDNA (5'-RACE); also called anti-mouse TLR7 antibody A94B10; anti-TLR7 monoclonal antibody
Consider B4, for which the binding result (in assay [3]; with TLR7N27-312) was “no binding” each time.
